# Test results as given in patent US20210145935A1.
# B1: human complement factor H purified from human plasma, P08603 19-1231 (protein)
# chain: EDCNELPPRRNTEILTGSWSDQTYPEGTQAIYKCRPGYRSLGNVIMVCRKGEWVALNPLRKCQKRPCGHPGDTPFGTFTLTGGNVFEYGVKAVYTCNEGYQLLGEINYRECDTDGWTNDIPICEVVKCLPVTAPENGKIVSSAMEPDREYHFGQAVRFVCNSGYKIEGDEEMHCSDDGFWSKEKPKCVEISCKSPDVINGSPISQKIIYKENERFQYKCNMGYEYSERGDAVCTESGWRPLPSCEEKSCDNPYIPNGDYSPLRIKHRTGDEITYQCRNGFYPATRGNTAKCTSTGWIPAPRCTLKPCDYPDIKHGGLYHENMRRPYFPVAVGKYYSYYCDEHFETPSGSYWDHIHCTQDGWSPAVPCLRKCYFPYLENGYNQNYGRKFVQGKSIDVACHPGYALPKAQTTVTCMENGWSPTPRCIRVKTCSKSSIDIENGFISESQYTYALKEKAKYQCKLGYVTADGETSGSITCGKDGWSAQPTCIKSCDIPVFMNARTKNDFTWFKLNDTLDYECHDGYESNTGSTTGSIVCGYNGWSDLPICYERECELPKIDVHLVPDRKKDQYKVGEVLKFSCKPGFTIVGPNSVQCYHFGLSPDLPICKEQVQSCGPPPELLNGNVKEKTKEEYGHSEVVEYYCNPRFLMKGPNKIQCVDGEWTTLPVCIVEESTCGDIPELEHGWAQLSSPPYYYGDSVEFNCSESFTMIGHRSITCIHGVWTQLPQCVAIDKLKKCKSSNLIILEEHLKNKKEFDHNSNIRYRCRGKEGWIHTVCINGRWDPEVNCSMAQIQLCPPPPQIPNSHNMTTTLNYRDGEKVSVLCQENYLIQEGEEITCKDGRWQSIPLCVEKIPCSQPPQIEHGTINSSRSSQESYAHGTKLSYTCEGGFRISEENETTCYMGKWSSPPQCEGLPCKSPPEISHGVVAHMSDSYQYGEEVTYKCFEGFGIDGPAIAKCLGEKWSHPPSCIKTDCLSLPSFENAIPMGEKKDVYKAGEQVTYTCATYYKMDGASNVTCINSRWTGRPTCRDTSCVNPPTVQNAYIVSRQMSKYPSGERVRYQCRSPYEMFGDEEVMCLNGNWTEPPQCKDSTGKCGPPPPIDNGDITSFPLSVYAPASSVEYQCQNLYQLEGNKRITCRNGQWSEPPKCLHPCVISREIMENYNIALRWTAKQKLYSRTGESVEFVCKRGYRLSSRSHTLRTTCWDGKLEYPTCAKR
# What was measured:
# [1] = target: H1N1 pseudotyped lentiviral particles (H1 and N1 from swine H1N1 A/California/04/09) (influenza A virus H1N1 A/California/04/09); assay: cell-based or functional assay
# [2] = target: H3N2 pseudotyped lentiviral particles (H3 from A/Denmark/70/03, N2 from A/Texas/50/2012) (influenza A virus H3N2 A/Denmark/70/03; influenza A virus H3N2 A/Texas/50/2012); assay: cell-based or functional assay
binder,measurement,setting,value
B1,"luciferase reporter activity of transduced MDCK cells, 40 µg/ml protein",[1],25 % reduction
same,"luciferase reporter activity of transduced MDCK cells, 40 µg/ml protein",[2],50 % increase
